# Laboratory results: US5767233A, “Soluble cleavable substrates of the hepatitis C virus protease” (Schering Corporation, priority 1995, dated 1998)
# Entries after “also recorded” stand apart in the source; their conditions may differ.
# B1: HisHIV183: histidine-tagged HCV NS3 protease without solubilizing motif, refolded from E. coli inclusion bodies (protein)
# chain: MRGSHHHHHHGSHKARVLAEAMSHGTMAPITAYAQQTRGLLGCIITSLTGRDKNQVEGEVQIVSTATQTFLATCINGVCWTVYHGAGTRTIASPKGPVIQMYTNVDQDLVGWPAPQGSRSLTPCTCGSSDLYLVTRHADVIPVRRRGDSRGSLLSPRPISYLKGSSGGPLLCPAGHAVGLFRAAVCTRGVTKAVDFIPVENLETTMRSPV
# B2: pNB182Δ4A: E. coli-expressed fusion of NS3 catalytic domain (182aa)-G-NS4A(4-54) with hydrophilic tail, named by its plasmid (protein)
# chain: MRGSHHHHHHTDPPITAYAQQTRGLLGCIITSLTGRDKNQVEGEVQIVSTATQTFLATCINGVCWTVYHGAGTRTIASPKGPVIQMYTNVDQDLVGWPAPQGSRSLTPCTCGSSDLYLVTRHADVIPVRRRGDSRGSLLSPRPISYLKGSSGGPLLCPAGHAVGLFRAAVCTRGVTKAVDFIPVENLETTMRSPGVLVGGVLAALAAYCLSTGCVVIVGRIVLSGKPAIIPDREVLYQEFDEMEECRKKKRRKLN
# B3: pBJ1022: E. coli-expressed His-tagged NS3 protease catalytic domain with hydrophilic tail, named by its plasmid (protein)
# chain: MRGSHHHHHHTDPPITAYAQQTRGLLGCIITSLTGRDKNQVEGEVQIVSTATQTFLATCINGVCWTVYHGAGTRTIASPKGPVIQMYTNVDQDLVGWPAPQGSRSLTPCTCGSSDLYLVTRHADVIPVRRRGDSRGSLLSPRPISYLKGSSGGPLLCPAGHAVGLFRAAVCTRGVTKAVDFIPVENLETTMRSPVRKKKRR
# Assays:
# Format in all cases: biochemical, Hepatitis C virus (HCV)
# [1] = system: NS3 protease (pBJ1022, NS3 catalytic domain); assay: Enhancement by 4A peptides of NS3 cleavage in the in vitro translation assay; details: no NS3 protease present
# Method: (§1) The plasmid pTS102 encoding the substrate 5A/5B was linearized by digestion with EcoR I and was transcribed using T7 RNA polymerase in vitro. The RNA was translated in presence of ^35 S methionine in rabbit reticulocyte lysates according to the manufacturer's (Promega protocol to produce HCV specific protein. In a 20 μl total reaction mixture containing 10 mM Tris, pH 7.5, 1 mM DTT, 0.5 mM EDTA, and 10% glycerol was placed 2 to 8 μl of ^35 S methionine-labeled translated 5A/5B substrate. The reaction was started with the addition of 10 μl of HCV NS3 protease in solubilization buffer (50 mM Na Phosphate, pH 7.8, 0.3M NaCl, 0.2% Tween 20, 10 mM DTT or BME, 10% glycerol), and incubated at 30° C. for the specified time. Reactions were stopped by adding an equal volume of 2X Laemmli sample buffer (Enprotech Inc.) and heating at 100° C. for 3 minutes. Reaction products were separated by SDS PAGE electrophoresis; gels were fixed, dried and subjected to autoradiography.
# (§2) NS4A is able to enhance the NS3 serine protease activity at NS5A/5B site in mammalian cells that transiently coexpress NS3, NS4A, and the various HCV non-structural polyprotein containing downstream cleavage sites. We have studied this enhancement activity in a well defined cell-free biochemical assay, using the partially purified E. coli-expressed pBJ1022 as a source of NS3 protease, and synthetic peptides containing various truncations of NS4A. In our first experiment we used a crude cell lysate of pBJ1022 as the enzyme and NS4A synthetic peptide truncated 33 mer from amino acid 22 to amino acid 54, the carboxy-terminal in vitro translation cleavage reaction.
# (§3) To further characterize NS4A enhancement activity additional truncations were made to the NS4A sequence. Truncated peptides were evaluated for their activity in the in vitro translation assay using Ni^2+ chelate column-purified pBJ1022 (NS3 catalytic domain).
# [2] = target: T1, NS3 protease (pBJ1022, NS3 catalytic domain) (Hepatitis C virus genotype 1a, UniProt P27958); assay: as above
# T1 construct: made in house; host or cells: E. coli M15 [pREP4]
# T1 sequence (P27958 1028-1209): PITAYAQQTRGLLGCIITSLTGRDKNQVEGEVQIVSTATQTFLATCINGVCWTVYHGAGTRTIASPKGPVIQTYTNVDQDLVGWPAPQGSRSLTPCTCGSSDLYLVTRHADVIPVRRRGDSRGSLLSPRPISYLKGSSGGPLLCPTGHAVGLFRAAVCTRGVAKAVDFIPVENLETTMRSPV
# Method: as §1, §2, §3
# [3] = system: in vitro-translated 5A/5B substrate; assay: Analysis of refolded NS3 protease activity by in vitro translation assay; details: in the presence of 4A peptide (33 mer, 2 μM), 30° C., about one hour
# From the text: (§4) To detect HCV NS3 protease activity in trans, we have expressed a 40 kD protein containing the NS5A/5B cleavage site in cell-free translation system and used that as the substrate for the enzyme. The substrate protein produces two protein products of apparent molecular weight 12.5 kD (NS 5A') and 27 kD (NS5B') upon cleavage by the HCV NS3 protease.
# as §1, with “(Promega)” for “(Promega”, “protease (SEQ ID NO: 5) with an approximately equimolar amount (2 μM) of the carboxyterminal 33 mer cofactor NS4A (SEQ ID NO: 29)” for “protease”, “about one hour.” for “the specified time.”, “Reaction products were separated by SDS PAGE electrophoresis; gels were fixed, dried and subjected to autoradiography.” left out
# [4] = system: in vitro translated 5A/5B substrate (40 kD protein containing the NS5A/5B cleavage site); assay: Analysis of NS3 protease activity by in vitro translation assay
# From the text: as §4, §1
molecule,measurement,setting,value
C-terminal 33 amino acid peptide of NS4A: NS4A synthetic peptide truncated 33 mer from amino acid 22 to amino acid 54 (strain HCV-BK) (CVVIVGRIVLSGKPAIIPDREVLYQEFDEMEEC),cleavage of the substrate by the 4A peptide itself or with vector lysate,[1],did not cleave the substrate
same,enhancement of NS3 mediated cleavage activity,[2]; Ni2+ chelate column-purified pBJ1022 (NS3 catalytic domain),able to enhance the NS3 mediated cleavage activity
same,enhancement of NS3 catalytic domain activity at the 5A/5B site,"[2]; crude cell lysate of pBJ1022 as enzyme, 0.01 μM to 1.0 μM peptide, 30 minutes",able to enhance the activity of the NS3 catalytic domain in a dose dependent manner
B1,trans-cleavage activity of the refolded protease on 5A/5B substrate,[3],active; also recorded: able to cleave 5A/5B substrate in a dose responsive manner
B2,time at which 5A and 5B cleavage products began to appear,"[4]; 30° C., soluble lysate at 1 μl per 20 μl reaction volume",1 min
same,amount of lysate at which cleavage reached a maximum,[4]; 30 minutes incubation,1 µL
same,least amount of cell lysate at which 5A and 5B cleavage products were detected,[4]; 30 minutes incubation,0.125 µL
same,activity of crude soluble lysate compared with pBJ1022 lysate,"[4]; crude soluble lysate, 30 minutes incubation",much more active
same,cleavage of translated 5A/5B substrate by imidazole-eluted fractions,[4]; fractions from Ni-NTA column purification,all able to cleave the translated 5A/5B Substrate
B3,HCV protease activity of imidazole-eluted fractions,"[4]; POROS Ni2+ chelate purification, NS4A amino acids 22 to 54 peptide added at 1 μM",active
same,"cleavage activity by the protease alone, without the 4A peptide","[4]; crude cell lysate, incubation time of 30 minutes",relatively low cleavage activity
same,cleavage of 5A/5B substrate by crude soluble lysate,"[4]; two hour assay at 30° C., lysate at 3, 6 and 10 μl, SDS PAGE",able to cleave 5A/5B substrate in a dose responsive manner
